Measurements from PMC6580504, “A novel hydroxycinnamoyl transferase for synthesis of hydroxycinnamoyl spermine conjugates in plants” (BMC Plant Biology, 2019).

Tests used:
[1] = molecular target: T1, SmSpmHT (Solanum virginianum, UniProt A0A1I9J7Z8); assay: spectrophotometric microplate assay; type: biochemical; details: 0.1 M Tris-HCl, 10 mM EDTA, pH 9.0, 30 °C
T1 construct: full-length ORF, 447 residues; N-terminal His-SUMO fusion from pRham N-His SUMO Kan, SUMO tag removed with SUMO Express Protease; bacterial expression
T1 sequence (A0A1I9J7Z8 1-447): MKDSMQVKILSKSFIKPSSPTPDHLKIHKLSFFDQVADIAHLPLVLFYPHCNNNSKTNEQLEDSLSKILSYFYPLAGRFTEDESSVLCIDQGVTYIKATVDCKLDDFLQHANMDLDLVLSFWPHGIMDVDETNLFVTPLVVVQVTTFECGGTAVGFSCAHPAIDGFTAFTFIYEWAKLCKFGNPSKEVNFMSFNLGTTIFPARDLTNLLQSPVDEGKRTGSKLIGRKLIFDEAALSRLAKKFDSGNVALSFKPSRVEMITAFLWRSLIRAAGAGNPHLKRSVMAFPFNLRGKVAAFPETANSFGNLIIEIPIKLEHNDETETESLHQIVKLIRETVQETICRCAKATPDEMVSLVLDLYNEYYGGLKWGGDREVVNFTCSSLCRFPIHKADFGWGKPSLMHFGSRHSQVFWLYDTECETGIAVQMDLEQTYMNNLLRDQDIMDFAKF

[2] = substrate: CC(C)(COP(=O)(O)OP(=O)(O)OC[C@H]1O[C@@H](n2cnc3c(N)ncnc32)[C@H](O)[C@@H]1OP(=O)(O)O)[C@@H](O)C(=O)NCCC(=O)NCCSC(=O)/C=C/c1ccc(O)c(O)c1; assay: purified protein; type: biochemical, Solanum richardii; details: 2.5 mM spermine, 0.1 M Tris-HCl, 10 mM EDTA, pH 9.0, 30 °C, acyl donor varied 0 to 240 μM
[3] = substrate: CC(C)(COP(=O)(O)OP(=O)(O)OC[C@H]1O[C@@H](n2cnc3c(N)ncnc32)[C@H](O)[C@@H]1OP(=O)(O)O)[C@@H](O)C(=O)NCCC(=O)NCCSC(=O)/C=C/c1ccc(O)cc1; assay: purified protein; type: biochemical, Solanum richardii; details: 2.5 mM spermine, 0.1 M Tris-HCl, 10 mM EDTA, pH 9.0, 30 °C, acyl donor varied 0 to 240 μM
[4] = substrate: COc1cc(/C=C/C(=O)SCCNC(=O)CCNC(=O)[C@H](O)C(C)(C)COP(=O)(O)OP(=O)(O)OC[C@H]2O[C@@H](n3cnc4c(N)ncnc43)[C@H](O)[C@@H]2OP(=O)(O)O)ccc1O; assay: purified protein; type: biochemical, Solanum richardii; details: 2.5 mM spermine, 0.1 M Tris-HCl, 10 mM EDTA, pH 9.0, 30 °C, acyl donor varied 0 to 240 μM

Molecule: NCCCNCCCCNCCCN [spermine]
- spectrophotometric microplate assay ([1]; acyl acceptor, 2.5 mM, hydroxycinnamoyl-CoA donor 120 μM): The recombinant proteins showed the same substrate specificity, pH preference, and catalytic activity as SrSpmHT

Molecule: CC(C)(COP(=O)(O)OP(=O)(O)OC[C@H]1O[C@@H](n2cnc3c(N)ncnc32)[C@H](O)[C@@H]1OP(=O)(O)O)[C@@H](O)C(=O)NCCC(=O)NCCSC(=O)/C=C/c1ccc(O)c(O)c1 [caffeoyl-CoA]
- spectrophotometric microplate assay ([1]; acyl donor, 120 μM, spermine 2.5 mM): The recombinant proteins showed the same substrate specificity, pH preference, and catalytic activity as SrSpmHT

B1: SrSpmHT (Solanum richardii) (protein)
chain: MKDSMQVNILSKSFIKPSSPTPDHLKIHKLSFFDQVADIAHLPLVLFYPHCNNNSKTNEQLEDSLSKILSYFYPLAGRFTEDESSVLCIDQGVTYIKATVDCKLDDFLQHANMDLDLVLSFWPHGIMDVDETNLFVTPLVVVQVTTFECGGTAVGFSCAHPAIDGFTAFTFIYEWAKLCKFGNPSKEVNFMSFNLGTTIFPARDLTNLLQSPVDEGKRTGSKLIGRKLIFDEAALSRLAKKFDSGNVALSFKPSRVEMITAFLWRSLIRAAGAGNPHLKRSVMAFPFNLRGKVAAFPETANSFGNLIIEIPIKLEHNDETETESLHQIVKLIRETVQETICRCAKATPDEMVSLVLDLYNEYYGGLKWGGDREVVNFTCSSLCRFPIHKADFGWGKPSLMHFGSRHSQVFWLYDTECETGIAVQMDLEQTYMNNLLRDQDIIDFAKF
notes: full-length ORF, 447 residues; N-terminal His-SUMO fusion from pRham N-His SUMO Kan, SUMO tag removed with SUMO Express Protease
- Km [2]: 478.4 ± 46.5 µM
- Vmax [2]: 68.8 ± 6.08 µmol/min/mg
- kcat [2]: 71.5 ± 6.3 s⁻¹
- kcat/Km [2]: 150000 ± 1000 M⁻¹ s⁻¹
- Km [3]: 49.0 ± 1.2 µM
- Vmax [3]: 8.15 ± 0.204 µmol/min/mg
- kcat [3]: 8.5 ± 0.21 s⁻¹
- kcat/Km [3]: 173000 ± 1000 M⁻¹ s⁻¹
- Km [4]: 106.1 ± 9.0 µM
- Vmax [4]: 13.4 ± 0.48 µmol/min/mg
- kcat [4]: 13.9 ± 0.5 s⁻¹
- kcat/Km [4]: 132000 ± 6000 M⁻¹ s⁻¹
